Results reported in US20080274950A1 (BABRAHAM INSTITUTE, published 2008).

Assays:
[1] = biological target: the molecule itself; experiment: bead aggregation assay, 1.25 mM CaCl2
Description: Dynabeads (Dynal Biotech) coupled to Protein A were coated with N-cadherin Fc at 1 μg/ml in calcium and magnesium-free HBSS containing 0.1% Tween 20, 1% FCS and 4 mM EDTA. Eppendorf tubes containing beads and fusion protein were rotated slowly for 1 hour at room temperature to allow binding to take place. The beads were then washed in the above assay buffer lacking EDTA and then resuspended in the same buffer supplemented with 1.25 mM CaCl₂. Beads were allowed to aggregate in a volume of 100 μl for 2 hours at 37° C. by slow rotation, in an eppendorf tube, at approximately 20 rpm. Aggregation was then assessed by light microscopy.
In the experiments described so far in this example, disruption of the salt bridge prevented intramolecular docking of Trp 2 in one or both components of the dimer. In an alternative strategy to prevent intramolecular docking, we removed Trp2 by introducing the mutation W2G or blocked the hydrophobic acceptor pocket with an isoleucine side chain projecting into the cavity using the mutation A801. N-cadherin Fc fusion proteins with these mutations were then tested against our panel of K562 transfectants (FIG. 17a). In keeping with the explanation given in FIG. 5, the W2G mutant acted as a strand acceptor and therefore adhered strongly to the E89A mutant whereas the A80I mutant was a strand donor and adhered to the GG extension mutant. […] In contrast, beads coated with the W2G or A801 mutants and tested separately clustered in twos and threes, whereas beads coated with the negative control mutant, D134A, were entirely monodisperse. To test whether all five extracellular domains of N-cadherin (EC1-EC5) are necessary for the strong adhesive interaction between the complementary mutants, we compared the adhesive activity of the W2G mutant prepared as a full length (EC1-EC5) Fc fusion protein with that of the same mutant prepared as a truncated construct containing only cadherin domains EC1 and EC2.

[2] = biological target: T1, mouse N-cadherin with an uncleaved prodomain expressed on L cells (furin site RQKR replaced with Factor Xa … (mouse, UniProt P15116 160-906)); experiment: adhesion of L cell transfectants to coated N-cadherin Fc
T1 construct: whole, on cells; Prodomain is still attached in the assay; also called unprocessed N-cadherin; L cell transfectants expressing unprocessed N-cadherin
T1 sequence (looked up): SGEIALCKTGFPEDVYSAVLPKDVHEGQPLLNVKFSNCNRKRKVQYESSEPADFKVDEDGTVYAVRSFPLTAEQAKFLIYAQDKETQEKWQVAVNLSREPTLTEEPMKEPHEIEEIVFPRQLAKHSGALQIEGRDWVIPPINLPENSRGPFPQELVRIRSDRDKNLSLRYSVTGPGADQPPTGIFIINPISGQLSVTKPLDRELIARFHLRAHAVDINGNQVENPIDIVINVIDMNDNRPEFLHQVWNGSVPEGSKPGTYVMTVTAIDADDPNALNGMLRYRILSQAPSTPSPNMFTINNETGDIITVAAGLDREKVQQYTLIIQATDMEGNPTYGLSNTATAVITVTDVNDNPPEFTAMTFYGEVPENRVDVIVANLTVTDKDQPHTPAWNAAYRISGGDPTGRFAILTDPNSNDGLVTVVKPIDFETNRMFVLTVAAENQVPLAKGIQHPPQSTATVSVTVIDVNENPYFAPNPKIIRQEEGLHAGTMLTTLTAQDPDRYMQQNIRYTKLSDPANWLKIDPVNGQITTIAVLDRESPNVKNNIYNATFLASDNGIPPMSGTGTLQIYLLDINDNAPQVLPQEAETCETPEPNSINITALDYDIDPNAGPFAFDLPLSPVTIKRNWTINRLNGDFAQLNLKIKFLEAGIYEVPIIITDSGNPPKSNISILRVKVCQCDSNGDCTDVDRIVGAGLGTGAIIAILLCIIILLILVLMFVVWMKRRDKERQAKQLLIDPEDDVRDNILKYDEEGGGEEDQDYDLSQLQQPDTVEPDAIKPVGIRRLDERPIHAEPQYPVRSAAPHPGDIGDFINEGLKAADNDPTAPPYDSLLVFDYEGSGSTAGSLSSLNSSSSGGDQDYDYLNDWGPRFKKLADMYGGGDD
Description: Adhesion tests were conducted substantially as described in Example 1. Briefly, K562 Cells or L cells transfected with wild type or mutant N-cadherin were allowed to settle for 45 minutes at 37° C. onto N-cadherin Fc fusion proteins coated at 1 μg/ml to a 96 well plate. Non-adherent cells were then washed off and residual adherent cells were quantitated by measuring acid phosphatase activity. Assays were conducted in quadruplicate and results are expressed as % cells adhering +/−SEM.
L cells expressing mouse N-cadherin with an uncleaved prodomain (see Koch et al., 2004) were obtained from Dr Weisong Shan (Montreal Neurological Institute). The normal furin cleavage site, RQKR, had been replaced with a Factor Xa site, IEGR, to give the correct N-terminus after digestion. […] L cells suspended in HBSS containing 0.1% BSA were treated with 0.01% trypsin (Sigma, Type XI) in the presence of 2 mM Ca²⁺ for 10 minutes at 37° C. and the digestion was then quenched with soyabean trypsin inhibitor, 0.5 mg per ml (Sigma, Type I-S). Cells were then washed and tested for adhesion to N-cadherin Fc-fusion protein. To check for complete removal of the prodomain, the cells were lysed in SDS sample buffer and the cadherin analysed by SDS PAGE under reducing conditions on a 4-12% gradient gel. […]

B1: wild type chicken N-cadherin-Fc fusion protein, dimeric (linked by disulphide bonds at the Ig hinge region) (Fc fusion, UniProt P10288 165-729, looked up)
chain: DWVIPPINLPENSRGPFPQELVRIRSDRDKSLSLRYSVTGPGADQPPTGIFIINPISGQLSVTKPLDREQIASFHLRAHAVDVNGNQVENPIDIVINVIDMNDNRPEFLHQVWNGTVPEGSKPGTYVMTVTAIDADDPNAQNGMLRYRILSQAPSSPSPNMFTINNETGDIITVAAGLDREKVQQYTLIIQATDMEGNPTYGLSNTATAVITVTDVNDNPPEFTAMTFYGEVPENRVDVIVANLTVTDKDQPHTPAWNARYQMTGGDPTGQFTILTDPNSNDGLVTVVKPIDFETNRMFVLTVAAENQVPLAKGIQHPPQSTATVSITVIDVNESPYFVPNPKLVRQEEGLLAGSMLTTFTARDPDRYMQQTSLRYSKLSDPANWLKIDPVNGQITTTAVLDRESIYVQNNMYNATFLASDNGIPPMSGTGTLQIYLLDINDNAPQVNPKEATTCETLQPNAINITAVDPDIDPNAGPFAFELPDSPPSIKRNWTIVRISGDHAQLSLRIRFLEAGIYDVPIVITDSGNPHASSTSVLKVKVCQCDINGDCTDVDRIVGAGLGTG
notes: extracellular domain; also called dimeric N-cadherin-Fc; wild type N-cadherin; not shown: hinge region, CH2 and CH3 domains of human IgG1 heavy chain (vector pIgSig)
B1: binds [1]; no binding (tested: Fc fusion protein coated at 1 µg/ml) [2].

B2: chicken N-cadherin-Fc fusion protein with the mutation D134A, dimeric (Fc fusion, UniProt P10288 165-728, looked up)
chain: DWVIPPINLPENSRGPFPQELVRIRSDRDKSLSLRYSVTGPGADQPPTGIFIINPISGQLSVTKPLDREQIASFHLRAHAVDVNGNQVENPIDIVINVIDMNDNRPEFLHQVWNGTVPEGSKPGTYVMTVTAIAADDPNAQNGMLRYRILSQAPSSPSPNMFTINNETGDIITVAAGLDREKVQQYTLIIQATDMEGNPTYGLSNTATAVITVTDVNDNPPEFTAMTFYGEVPENRVDVIVANLTVTDKDQPHTPAWNARYQMTGGDPTGQFTILTDPNSNDGLVTVVKPIDFETNRMFVLTVAAENQVPLAKGIQHPPQSTATVSITVIDVNESPYFVPNPKLVRQEEGLLAGSMLTTFTARDPDRYMQQTSLRYSKLSDPANWLKIDPVNGQITTTAVLDRESIYVQNNMYNATFLASDNGIPPMSGTGTLQIYLLDINDNAPQVNPKEATTCETLQPNAINITAVDPDIDPNAGPFAFELPDSPPSIKRNWTIVRISGDHAQLSLRIRFLEAGIYDVPIVITDSGNPHASSTSVLKVKVCQCDINGDCTDVDRIVGAGLGT
notes: extracellular domain; also called D134A mutant; N-cadherin Fc mutant D134A; not shown: hinge region, CH2 and CH3 domains of human IgG1 heavy chain (vector pIgSig)
B2: no binding (tested: beads coated at 1 µg/ml) [1]; no binding (tested: Fc fusion protein coated at 1 µg/ml) [2].
